Results reported in article PMC7150476.

Target: STAT3 (UniProt P40763)
Experiment: co-immunoprecipitation, Flag/Myc tags, Western blot
Settings: reference: wild-type PLSCR1-2Flag; sites Y69,Y74

binding against the reference: weaker
Substance: PLSCR1 (from UniProt O15162) PLSCR1-Y69,74F-2Flag
